These results are taken from patent US20250000946A1 (WUXI BIOLOGICS IRELAND, published 2025).

Read-outs that look alike come from different tables or passages of the source.

Assay [1] has as its target T1, Human IL-2Rβ/γ (intermediate affinity IL-2 receptor) (human, UniProt P14784 27-551; P31785 23-369).
T1 construct: whole, on cells; also called IL-2Rβ/γc; IL-2Rβ (CD122) and γ (CD132)
T1 sequence (looked up) 1: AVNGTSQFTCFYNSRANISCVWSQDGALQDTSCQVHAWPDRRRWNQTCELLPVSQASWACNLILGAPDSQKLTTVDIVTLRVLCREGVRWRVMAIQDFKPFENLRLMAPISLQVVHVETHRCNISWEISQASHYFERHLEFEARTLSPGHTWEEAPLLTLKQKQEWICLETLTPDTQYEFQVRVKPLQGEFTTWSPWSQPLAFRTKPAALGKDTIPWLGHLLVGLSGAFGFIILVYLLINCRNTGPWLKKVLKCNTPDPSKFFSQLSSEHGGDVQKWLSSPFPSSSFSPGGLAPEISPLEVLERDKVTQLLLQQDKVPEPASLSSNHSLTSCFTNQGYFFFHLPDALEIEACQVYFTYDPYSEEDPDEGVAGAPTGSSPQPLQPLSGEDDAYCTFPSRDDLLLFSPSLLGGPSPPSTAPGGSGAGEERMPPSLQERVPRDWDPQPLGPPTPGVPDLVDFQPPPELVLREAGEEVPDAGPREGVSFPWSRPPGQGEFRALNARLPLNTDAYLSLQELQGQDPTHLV
T1 sequence (looked up) 2: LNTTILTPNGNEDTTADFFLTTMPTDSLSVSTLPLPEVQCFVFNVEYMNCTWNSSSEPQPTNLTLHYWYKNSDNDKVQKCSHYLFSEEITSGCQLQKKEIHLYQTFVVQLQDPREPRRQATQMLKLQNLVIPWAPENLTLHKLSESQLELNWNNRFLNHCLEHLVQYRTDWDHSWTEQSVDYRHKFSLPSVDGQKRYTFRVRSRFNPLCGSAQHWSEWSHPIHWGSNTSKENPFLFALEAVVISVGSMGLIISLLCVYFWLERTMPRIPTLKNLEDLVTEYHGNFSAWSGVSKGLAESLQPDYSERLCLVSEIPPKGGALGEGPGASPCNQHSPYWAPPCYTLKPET
The assay can be described thus: FACS, HH cells. On the procedure: (§1) Human cutaneous T cell lymphoma HH cells, malignant non-Hodgkin's lymphoma NK92 cells and cutaneous T cell lymphoma MJ20 cells were used for binding assay. They both constitutively express IL-2Rβ (CD122) and […] (CD132), and NK92 and MJ20 also expresses IL-2Rα (CD25). HH, NK92 and MJ20 cells were cultured following ATCC guidance, then transferred to a 96-plate for binding analysis. Cells were incubated with IL-2/Fc fusion proteins at the indicated concentrations for 30 min at 4° C. to avoid internalization. Binding was detected by 2nd antibody of PE-anti-human Fc at 4° C. for another 30 min. The median fluorescence intensity (MFI) on HH and NK92 cells was measured using FACS.
(§2) IL-2 variants of T2U0.E44-6 and T2U0.E44-26 were used to construct bivalent variants W3XX115-T2.Z20-1.uIgG4V322 and W3XX115-T2.Z20-2.uIgG4V322 respectively.

The target of assay [2] is T2, W369-hPro1.ECD.His, IL-2Rγ ECD (human, UniProt P31785 23-254).
T2 construct: Entry includes linker and C-terminal 6xHis tag; also called IL-2Rγc; CD132
T2 sequence: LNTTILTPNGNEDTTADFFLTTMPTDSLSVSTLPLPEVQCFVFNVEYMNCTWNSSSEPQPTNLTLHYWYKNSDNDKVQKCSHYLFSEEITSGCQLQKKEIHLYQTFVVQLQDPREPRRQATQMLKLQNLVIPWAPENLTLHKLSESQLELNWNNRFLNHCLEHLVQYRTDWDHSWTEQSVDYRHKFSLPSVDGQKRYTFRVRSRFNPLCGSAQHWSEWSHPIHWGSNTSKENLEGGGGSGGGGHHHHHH
Kind of assay: SPR Biacore 8K; variant pre-mixed 1:1 with IL-2Rβ ECD-His, injected over captured IL-2Rγ ECD-His. On the procedure:
(§3) IL-2 variants binding affinity to IL-2 receptor were detected by SPR using Biacore 8K. For IL-2Rα binding assay, each variant was captured on anti-human Fc immobilized CM5 sensor chip (cytiva). W3XX115-hPro1.ECD.His at different concentrations were injected over the sensor chip at a flow rate of 30 uL/min for an association phase of 60 s, followed by 90 s dissociation. The chip was then regenerated by 10 mM Glycine-HCl pH1.5 after each binding cycle. For IL-2Rγ binding assay, IL-2 variants were mixed with W369-hPro2.ECD.His as 1:1 before assay, were detected by SPR using Biacore 8K. W3XX115-hPro1.ECD.His was captured on anti-His immobilized CM5 sensor chip (cytiva). The mixture were injected over the sensor chip as described above. The sensorgrams of blank surface and buffer channel were subtracted from the test sensorgrams. The experimental data was fitted by steady state affinity model. Molecular weight of W3XX115-hPro1.ECD.His or W369-hPro1.ECD.His was used to calculate the molar concentration of analyte.
(§4) For T3U0.E44-1 and T2U0.E44-33, no binding to IL-2Rα was detected.

Assay [3] addresses T1, Human IL-2Rβ/γ (intermediate affinity …). Kind of assay: FACS, HH cells; EC50 fold vs T2U0.E44-1. The method, boiled down: (§5)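 Cultured HH, NK92 and MJ20 cells are exposed to IL-2/Fc fusion proteins for 30 min at 4° C. Bound fusion protein is then stained with PE-anti-human Fc, again 30 min at 4° C. Flow cytometry gives the MFI.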
In general terms: Flow cytometry measures light scatter and fluorescence of single cells or particles in a stream.

Assay [4] has the same target. Kind of assay: cell-based or functional assay.
Assay [5] shares this target. The assay can be described thus: FACS, HH cells; EC50 fold vs T2U0.E44-1. On the procedure:
as §1, §2
The source holds these as a separate data set.

The target is the same in assay [6]. The assay can be described thus: FACS, HH cells. The method, boiled down: as §5
This is another data set of the same source.

For assay [7], the target named is T3, W369-hPro2.ECD.His, IL2Rβ ECD (human, UniProt P14784 27-239).
T3 construct: Entry includes linker and C-terminal 6xHis tag; also called CD122
T3 sequence: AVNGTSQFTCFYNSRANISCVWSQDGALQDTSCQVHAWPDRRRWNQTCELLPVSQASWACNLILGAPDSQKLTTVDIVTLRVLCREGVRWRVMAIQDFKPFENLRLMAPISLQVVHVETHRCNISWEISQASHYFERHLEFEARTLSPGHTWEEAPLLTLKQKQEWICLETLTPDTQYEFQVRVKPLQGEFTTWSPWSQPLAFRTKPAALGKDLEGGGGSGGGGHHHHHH
The assay can be described thus: SPR Biacore 8K; set-up for IL-2Rβ not described. A general note: Surface plasmon resonance follows binding to a sensor surface in real time, without labels.

The target of assay [8] is T4, W3XX115-hPro1.ECD.His, IL2Rα ECD (Homo sapiens (Human), UniProt P01589 22-213).
T4 construct: Entry includes the C-terminal 6xHis tag; also called CD25
T4 sequence: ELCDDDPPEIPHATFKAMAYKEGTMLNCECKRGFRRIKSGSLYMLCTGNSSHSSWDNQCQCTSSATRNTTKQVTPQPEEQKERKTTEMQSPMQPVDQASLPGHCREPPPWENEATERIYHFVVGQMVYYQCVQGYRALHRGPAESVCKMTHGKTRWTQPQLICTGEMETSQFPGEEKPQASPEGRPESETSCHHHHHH
Kind of assay: SPR Biacore 8K; variant captured on anti-human Fc chip, IL-2Rα ECD-His injected. On the procedure:
as §3, §4

For assay [9], the target named is T1, Human IL-2Rβ/γ (intermediate affinity …). The assay can be described thus: cell-based or functional assay. The source holds these as a separate data set.

B1: W3XX115-T3U0.E44-1.uIgG4V322 (Fc fusion)
chain: APTSSSTKKTQLQLEHLLLDLQMILNGINNYKNPKLTRMLTAKFAMPKKATELKHLQCLEEELKPLEEVLNGAQSKNFHLRPRDLISNINVIVLELKGSETTFMCEYADETATIVEFLNRWITFCQSIISTLTESKYGPPCPPCPAPEAAGGPSVFLFPPKPKDTLMISRTPEVTCVVVDVSQEDPEVQFNWYVDGVEVHNAKTKPREEQFNSTYRVVSVLTVLHQDWLNGKEYKCKVSNKGLPSSIEKTISKAKGQPREPQVYTLPPCQEEMTKNQVSLWCLVKGFYPSDIAVEWESNGQPENNYKTTPPVLDSDGSFFLYSRLTVDKSRWQEGNVFSCSVMHEALHNHYTQKSLSLSLG
heavy: EIQLQQSGPELVKPGASVKVSCKASGYSFTDYNMYWVKQSHGESLEWIGYIDPYNGGTRYNQKFKGKATLTVDKSSSTAFMHLNSLTSEDSAVYYCARNGHWDGAWFAYWGQGTLVTVSAASTKGPSVFPLAPCSRSTSESTAALGCLVKDYFPEPVTVSWNSGALTSGVHTFPAVLQSSGLYSLSSVVTVPSSSLGTKTYTCNVDHKPSNTKVDKRVESKYGPPCPPCPAPEAAGGPSVFLFPPKPKDTLMISRTPEVTCVVVDVSQEDPEVQFNWYVDGVEVHNAKTKPREEQFNSTYRVVSVLTVLHQDWLNGKEYKCKVSNKGLPSSIEKTISKAKGQPREPQVCTLPPSQEEMTKNQVSLSCAVKGFYPSDIAVEWESNGQPENNYKTTPPVLDSDGSFFLVSRLTVDKSRWQEGNVFSCSVMHEALHNHYTQKSLSLSLG
light: DIQMNQSPSSLSASLGDTITITCHASQNINVWLSWYQQKPGNIPKLLIYKASNLHTGVPSRFSGSRSGTGFTLTISSLQPEDIATYYCHQGQSYPFTFGSGTKLEIKRTVAAPSVFIFPPSDEQLKSGTASVVCLLNNFYPREAKVQWKVDNALQSGNSQESVTEQDSKDSTYSLSSTLTLSKADYEKHKVYACEVTHQGLSSPVTKSFNRGEC
notes: E44 format, IgG4 FALA; also called non-α IL-2
With B1, the values for the EC50 in [1] and in assay [6] were 29.3 nM and 64.1 nM, respectively. The binding result in assay [2] is listed as “binds”; in assay [8], “no binding”. Moreover, the Affinity reduction came out at 1.3 fold in assay [3] and 0.9 fold in assay [5]. Also, the “Human CD8+ T Potency EC50 (STAT5 phosphorylation)” value in assay [4] amounted to 7.87 nM. In addition, in assay [4], the “Human CD8+ T Potency reduction” value came to 2.2 fold. The Kd (commonly the equilibrium constant for the complex coming apart) in assay [7] is 2260 nM. In addition, the “Potency EC50, STAT5 phosphorylation in CD8+ T (column headed Human Treg)” value in [9] was 11.7 nM. Moreover, the “Potency reduction, CD8+ T (column headed Human Treg)” value in assay [9] was determined as 1 fold.
